This passage reports Kd, koff and kon results from US20230174626A1.

The target in experiment [1] is HCMV gH/gL/gO protein complex (Human Cytomegalovirus (HCMV)). Kind of experiment: SPR Biacore 8K+, single-cycle kinetics, IgG captured on Protein A chip, gH/gL/gO as analyte, 1:1 fit.
Experiment [2] deals with HCMV Pentamer protein complex (gH/gL/UL128/UL130/UL131A) (Human Cytomegalovirus (HCMV)). In words: SPR Biacore 8K+, single-cycle kinetics, IgG captured on Protein A chip, Pentamer as analyte, 1:1 fit.
HCMV Pentamer protein complex (gH/gL/UL128/UL130/UL131A) (Human Cytomegalovirus (HCMV)), sequence (Q6SW67 24-719, chain 1 of 4): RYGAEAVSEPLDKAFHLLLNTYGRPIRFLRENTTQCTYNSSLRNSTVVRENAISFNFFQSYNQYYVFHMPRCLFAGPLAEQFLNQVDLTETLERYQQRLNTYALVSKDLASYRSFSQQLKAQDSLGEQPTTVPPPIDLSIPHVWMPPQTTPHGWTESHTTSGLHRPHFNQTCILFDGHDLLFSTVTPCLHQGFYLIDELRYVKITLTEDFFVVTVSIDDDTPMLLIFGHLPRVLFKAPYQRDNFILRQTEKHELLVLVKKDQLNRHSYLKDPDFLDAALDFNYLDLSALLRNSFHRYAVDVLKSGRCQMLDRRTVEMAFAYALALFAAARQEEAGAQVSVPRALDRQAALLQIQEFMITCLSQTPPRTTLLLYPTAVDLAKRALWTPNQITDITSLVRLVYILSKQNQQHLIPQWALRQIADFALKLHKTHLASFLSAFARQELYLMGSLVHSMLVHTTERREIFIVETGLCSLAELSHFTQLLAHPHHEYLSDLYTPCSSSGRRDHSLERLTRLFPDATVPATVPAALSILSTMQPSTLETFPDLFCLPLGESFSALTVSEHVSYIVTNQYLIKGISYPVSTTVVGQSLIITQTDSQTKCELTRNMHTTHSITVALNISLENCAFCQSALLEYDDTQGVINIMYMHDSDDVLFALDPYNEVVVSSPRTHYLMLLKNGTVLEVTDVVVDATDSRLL
HCMV Pentamer protein complex (gH/gL/UL128/UL130/UL131A) (Human Cytomegalovirus (HCMV)), sequence (F5HCH8 31-278, chain 2 of 4, further chain): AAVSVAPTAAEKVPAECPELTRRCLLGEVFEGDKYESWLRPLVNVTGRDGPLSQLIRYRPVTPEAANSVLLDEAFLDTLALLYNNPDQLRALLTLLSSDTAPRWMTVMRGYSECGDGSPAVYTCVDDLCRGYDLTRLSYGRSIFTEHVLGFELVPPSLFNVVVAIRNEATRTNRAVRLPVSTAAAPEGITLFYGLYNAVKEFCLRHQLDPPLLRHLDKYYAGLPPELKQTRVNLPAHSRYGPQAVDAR
HCMV Pentamer protein complex (gH/gL/UL128/UL130/UL131A) (Human Cytomegalovirus (HCMV)), sequence (P16837 28-171, chain 3 of 4, further chain): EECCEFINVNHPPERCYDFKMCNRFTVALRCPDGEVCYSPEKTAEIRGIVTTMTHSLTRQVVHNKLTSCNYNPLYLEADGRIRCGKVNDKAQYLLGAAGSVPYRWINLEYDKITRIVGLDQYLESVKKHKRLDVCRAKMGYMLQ
HCMV Pentamer protein complex (gH/gL/UL128/UL130/UL131A) (Human Cytomegalovirus (HCMV)), sequence (F5HCP3 26-214, chain 4 of 4, further chain): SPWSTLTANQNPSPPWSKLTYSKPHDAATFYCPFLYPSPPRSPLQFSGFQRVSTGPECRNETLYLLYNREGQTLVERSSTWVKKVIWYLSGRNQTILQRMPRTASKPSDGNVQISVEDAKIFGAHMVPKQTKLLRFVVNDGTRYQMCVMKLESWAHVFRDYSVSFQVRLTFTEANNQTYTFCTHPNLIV

B1: humanized 2C7 mAb (antibody, human IgG1, kappa, V domains shown)
VH: EVQLQQSGPELEKPGASVKISCKASGYSFTGYNMNWVKQSNGKSLEWIGNIDPYFGGTSYNQKFKGKATLTVDKSSSTAYMELKSLTSEDSAVYYCARHYGYFPWFAYWGQGTLVTVSA
VL: DIVLTQSPASLAVSLGQRATISCRASESVDSSGNSFMHWYQQKPGQPPKLLIYRASNLESGIPARFSGSGSRTDFTLTINPVGADDVATYYCQQSNEDPWTFGGGTKLEIKR
Usually Kd stands for the free concentration of one partner at which half of the binding sites on the other are occupied at equilibrium, for simple one-to-one binding. By koff is commonly meant the rate constant with which the complex falls apart. As a reminder, the kon is the second-order rate constant of association. For the molecule B1, in experiment [1], the Kd was 1 nM, the koff was determined as 0.000416 s⁻¹ and the kon was determined as 415000 M⁻¹ s⁻¹. In experiment [2], the Kd came out at 0.721 nM, the koff was 0.000322 s⁻¹ and the kon is 447000 M⁻¹ s⁻¹.

B2: humanized 23C2 mAb (antibody, human IgG1, kappa, V domains shown)
VH: DVQLQESGPGLVKPSQSLSLTCSVTGYSIKSGYYWNWIRQFPGNKLEWMGYISYGGDFTYNPSLKNRISITRDTSKNQFFLKLNSVTTEDTATYFCVREPNWESYFDIWGAGTTVTVSS
VL: DIQMTQSPASLSASVGETVTITCRASDNIYSYLTWYHQKQGKSPHLLVYNAKTLPEGVPLRFSGTGSGTQFSLKINSLQPEDFGIYFCLHDYGFPRTFGGGTILEVKR
In experiment [2], B2 came in with a Kd of 1.03 nM, a koff of 0.000285 s⁻¹ and a kon of 275000 M⁻¹ s⁻¹.

B3: humanized 26B6 mAb (antibody, human IgG1, kappa, V domains shown)
VH: EVQLVESGGGLVKPGGSLKLSCAASGFTITDYYIYWLRQTPEKKLEWVAAISDGGRYTDYPDSVKGRFTMSSDNAKTNLYLQMGSLQSDDTGMYYCARWASYGYHWYFDVWGAGTTVTVSS
VL: DIQMTQTTSSLSASLGDRVTISCSASQDISNYINWYQQKRDGTVKLLIYDSSSLHSGVPSRFSGSGSGTDYSLTISNLEPEDFATYFCQQYSNLPPTFGGGTNLEIKR
For B3, in experiment [2], the Kd came out at 0.123 nM, the koff is 5.3e-05 s⁻¹ and the kon amounted to 432000 M⁻¹ s⁻¹.
